The assay has as its target biotinylated human IgG1 Fc protein (IG1-H8213, ACROBiosystems) (human). The experiment in a line: BLI.

pKd: −log10 of the molar value.

In the case of “Fc-ARM A-Z (HER2-specific affibody Z_(HER2:342) fused to a single Z domain) (designed binder)”, the pKd was 8.11.
Under “Fc-ARM A-ZZ (HER2-specific affibody Z_(HER2:342) fused to double Z domains) (designed binder)” stands 9.55.
